Article PMC7352350, “Molecular Interactions Stabilizing the Promatrix Metalloprotease-9·Serglycin Heteromer” (International Journal of Molecular Sciences, 2020)

T1: recombinant human His-tagged serglycin (human, UniProt P10124 28-158)
T1 construct: serglycin core protein, human, the tag stands instead of the signal peptide; no GAG chains; numbers count on: the mature protein (1-131); also called Ht-SG; SG core protein; source: bought: ProSpec (produced in Escherichia coli)
T1 sequence (looked up): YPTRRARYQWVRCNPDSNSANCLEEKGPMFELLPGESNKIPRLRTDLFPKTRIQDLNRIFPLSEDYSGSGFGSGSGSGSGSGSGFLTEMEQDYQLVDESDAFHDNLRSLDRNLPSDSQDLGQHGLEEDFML

B1: HPX peptide 11 (peptide, UniProt P14780 541-560, looked up)
peptide: RFSEGRGSRPQGPFLIADKW
notes: MMP-9 HPX domain (F521-D707), spot 11 of the 20-mer walk with two-residue shift; source: synthetic peptide on a cellulose membrane
B2: HPX peptide 18 (peptide, UniProt P14780 555-574, looked up)
peptide: LIADKWPALPRKLDSVFEER
notes: MMP-9 HPX domain (F521-D707), spot 18 of the 20-mer walk with two-residue shift; source: synthetic peptide on a cellulose membrane
B3: FnII peptide 20 (peptide, UniProt P14780 263-282, looked up)
peptide: DTDDRFGFCPSERLYTQDGN
notes: MMP-9 FnII module (A225-D390), spot 20 of the 20-mer walk with two-residue shift; source: synthetic peptide on a cellulose membrane
B4: FnII peptide 15 (peptide, UniProt P14780 253-272, looked up)
peptide: LPWCSTTANYDTDDRFGFCP
notes: MMP-9 FnII module (A225-D390), spot 15 of the 20-mer walk with two-residue shift; source: synthetic peptide on a cellulose membrane
B5: HPX peptide 37 (peptide, UniProt P14780 593-612, looked up)
peptide: ASVLGPRRLDKLGLGADVAQ
notes: MMP-9 HPX domain (F521-D707), spot 37 of the 20-mer walk with two-residue shift; source: synthetic peptide on a cellulose membrane
B6: HPX peptide 56 (peptide, UniProt P14780 631-650, looked up)
peptide: RLWRFDVKAQMVDPRSASEV
notes: MMP-9 HPX domain (F521-D707), spot 56 of the 20-mer walk with two-residue shift; source: synthetic peptide on a cellulose membrane
B7: HPX peptide 70 (peptide, UniProt P14780 659-678, looked up)
peptide: LDTHDVFQYREKAYFCQDRF
notes: MMP-9 HPX domain (F521-D707), spot 70 of the 20-mer walk with two-residue shift; source: synthetic peptide on a cellulose membrane
B8: HPX peptide 38 (peptide, UniProt P14780 595-614, looked up)
peptide: VLGPRRLDKLGLGADVAQVT
notes: MMP-9 HPX domain (F521-D707), spot 38 of the 20-mer walk with two-residue shift; source: synthetic peptide on a cellulose membrane
B9: HPX peptide 69 (peptide, UniProt P14780 657-676, looked up)
peptide: VPLDTHDVFQYREKAYFCQD
notes: MMP-9 HPX domain (F521-D707), spot 69 of the 20-mer walk with two-residue shift; source: synthetic peptide on a cellulose membrane
B10: FnII peptide 21 (peptide, UniProt P14780 265-284, looked up)
peptide: DDRFGFCPSERLYTQDGNAD
notes: MMP-9 FnII module (A225-D390), spot 21 of the 20-mer walk with two-residue shift; source: synthetic peptide on a cellulose membrane
B11: HPX peptide 41 (peptide, UniProt P14780 601-620, looked up)
peptide: LDKLGLGADVAQVTGALRSG
notes: MMP-9 HPX domain (F521-D707), spot 41 of the 20-mer walk with two-residue shift; source: synthetic peptide on a cellulose membrane
B12: FnII peptide 16 (peptide, UniProt P14780 255-274, looked up)
peptide: WCSTTANYDTDDRFGFCPSE
notes: MMP-9 FnII module (A225-D390), spot 16 of the 20-mer walk with two-residue shift; source: synthetic peptide on a cellulose membrane
B13: FnII peptide 14 (peptide, UniProt P14780 251-270, looked up)
peptide: DGLPWCSTTANYDTDDRFGF
notes: MMP-9 FnII module (A225-D390), spot 14 of the 20-mer walk with two-residue shift; source: synthetic peptide on a cellulose membrane
B14: HPX peptide 12 (peptide, UniProt P14780 543-562, looked up)
peptide: SEGRGSRPQGPFLIADKWPA
notes: MMP-9 HPX domain (F521-D707), spot 12 of the 20-mer walk with two-residue shift; source: synthetic peptide on a cellulose membrane
B15: FnII peptide 17 (peptide, UniProt P14780 257-276, looked up)
peptide: STTANYDTDDRFGFCPSERL
notes: MMP-9 FnII module (A225-D390), spot 17 of the 20-mer walk with two-residue shift; source: synthetic peptide on a cellulose membrane
B16: HPX peptide 10 (peptide, UniProt P14780 539-558, looked up)
peptide: YWRFSEGRGSRPQGPFLIAD
notes: MMP-9 HPX domain (F521-D707), spot 10 of the 20-mer walk with two-residue shift; source: synthetic peptide on a cellulose membrane
B17: HPX peptide 71 (peptide, UniProt P14780 661-680, looked up)
peptide: THDVFQYREKAYFCQDRFYW
notes: MMP-9 HPX domain (F521-D707), spot 71 of the 20-mer walk with two-residue shift; source: synthetic peptide on a cellulose membrane
B18: FnII peptide 18 (peptide, UniProt P14780 259-278, looked up)
peptide: TANYDTDDRFGFCPSERLYT
notes: MMP-9 FnII module (A225-D390), spot 18 of the 20-mer walk with two-residue shift; source: synthetic peptide on a cellulose membrane
B19: FnII peptide 19 (peptide, UniProt P14780 261-280, looked up)
peptide: NYDTDDRFGFCPSERLYTQD
notes: MMP-9 FnII module (A225-D390), spot 19 of the 20-mer walk with two-residue shift; source: synthetic peptide on a cellulose membrane
B20: HPX peptide 84 (peptide, UniProt P14780 687-706, looked up)
peptide: ELNQVDQVGYVTYDILQCPE
notes: MMP-9 HPX domain (F521-D707), spot 84 of the 20-mer walk with two-residue shift; source: synthetic peptide on a cellulose membrane
B21: FnII peptide 22 (peptide, UniProt P14780 267-286, looked up)
peptide: RFGFCPSERLYTQDGNADGK
notes: MMP-9 FnII module (A225-D390), spot 22 of the 20-mer walk with two-residue shift; source: synthetic peptide on a cellulose membrane
B22: FnII peptide 13 (peptide, UniProt P14780 249-268, looked up)
peptide: RSDGLPWCSTTANYDTDDRF
notes: MMP-9 FnII module (A225-D390), spot 13 of the 20-mer walk with two-residue shift; source: synthetic peptide on a cellulose membrane
B23: HPX peptide 85 (peptide, UniProt P14780 688-707, looked up)
peptide: LNQVDQVGYVTYDILQCPED
notes: MMP-9 HPX domain (F521-D707), last spot (85) of the 20-mer walk; source: synthetic peptide on a cellulose membrane
B24: HPX peptide 19 (peptide, UniProt P14780 557-576, looked up)
peptide: ADKWPALPRKLDSVFEERLS
notes: MMP-9 HPX domain (F521-D707), spot 19 of the 20-mer walk with two-residue shift; source: synthetic peptide on a cellulose membrane
B25: FnII peptide 65 (peptide, UniProt P14780 353-372, looked up)
peptide: FLGKEYSTCTSEGRGDGRLW
notes: MMP-9 FnII module (A225-D390), spot 65 of the 20-mer walk with two-residue shift; source: synthetic peptide on a cellulose membrane
B26: FnII peptide 64 (peptide, UniProt P14780 351-370, looked up)
peptide: FTFLGKEYSTCTSEGRGDGR
notes: MMP-9 FnII module (A225-D390), spot 64 of the 20-mer walk with two-residue shift; source: synthetic peptide on a cellulose membrane
B27: FnII peptide 35 (peptide, UniProt P14780 293-312, looked up)
peptide: IFQGQSYSACTTDGRSDGYR
notes: MMP-9 FnII module (A225-D390), spot 35 of the 20-mer walk with two-residue shift; source: synthetic peptide on a cellulose membrane
B28: HPX peptide 76 (peptide, UniProt P14780 671-690, looked up)
peptide: AYFCQDRFYWRVSSRSELNQ
notes: MMP-9 HPX domain (F521-D707), spot 76 of the 20-mer walk with two-residue shift; source: synthetic peptide on a cellulose membrane
B29: SG peptide 27 (peptide, UniProt P10124 80-99, looked up)
peptide: IQDLNRIFPLSEDYSGSGFG
notes: serglycin core protein, spot 27 of the 20-mer walk with two-residue shift; numbers count on: the mature protein (1-131); source: synthetic peptide on a cellulose membrane
B30: SG peptide 15 (peptide, UniProt P10124 56-75, looked up)
peptide: MFELLPGESNKIPRLRTDLF
notes: serglycin core protein, spot 15 of the 20-mer walk with two-residue shift; numbers count on: the mature protein (1-131); source: synthetic peptide on a cellulose membrane
B31: SG peptide 25 (peptide, UniProt P10124 76-95, looked up)
peptide: PKTRIQDLNRIFPLSEDYSG
notes: serglycin core protein, spot 25 of the 20-mer walk with two-residue shift; numbers count on: the mature protein (1-131); source: synthetic peptide on a cellulose membrane
B32: SG peptide 47 (peptide, UniProt P10124 120-139, looked up)
peptide: YQLVDESDAFHDNLRSLDRN
notes: serglycin core protein, spot 47 of the 20-mer walk with two-residue shift; numbers count on: the mature protein (1-131); source: synthetic peptide on a cellulose membrane
B33: SG peptide 24 (peptide, UniProt P10124 74-93, looked up)
peptide: LFPKTRIQDLNRIFPLSEDY
notes: serglycin core protein, spot 24 of the 20-mer walk with two-residue shift; numbers count on: the mature protein (1-131); source: synthetic peptide on a cellulose membrane
B34: SG peptide 22 (peptide, UniProt P10124 70-89, looked up)
peptide: LRTDLFPKTRIQDLNRIFPL
notes: serglycin core protein, spot 22 of the 20-mer walk with two-residue shift; numbers count on: the mature protein (1-131); source: synthetic peptide on a cellulose membrane
B35: SG peptide 6 (peptide, UniProt P10124 38-57, looked up)
peptide: VRCNPDSNSANCLEEKGPMF
notes: serglycin core protein, spot 6 of the 20-mer walk with two-residue shift; numbers count on: the mature protein (1-131); source: synthetic peptide on a cellulose membrane
B36: SG peptide 26 (peptide, UniProt P10124 78-97, looked up)
peptide: TRIQDLNRIFPLSEDYSGSG
notes: serglycin core protein, spot 26 of the 20-mer walk with two-residue shift; numbers count on: the mature protein (1-131); source: synthetic peptide on a cellulose membrane
B37: SG peptide 21 (peptide, UniProt P10124 68-87, looked up)
peptide: PRLRTDLFPKTRIQDLNRIF
notes: serglycin core protein, spot 21 of the 20-mer walk with two-residue shift; numbers count on: the mature protein (1-131); source: synthetic peptide on a cellulose membrane
B38: SG peptide 14 (peptide, UniProt P10124 54-73, looked up)
peptide: GPMFELLPGESNKIPRLRTD
notes: serglycin core protein, spot 14 of the 20-mer walk with two-residue shift; numbers count on: the mature protein (1-131); source: synthetic peptide on a cellulose membrane
B39: SG peptide 48 (peptide, UniProt P10124 122-141, looked up)
peptide: LVDESDAFHDNLRSLDRNLP
notes: serglycin core protein, spot 48 of the 20-mer walk with two-residue shift; numbers count on: the mature protein (1-131); source: synthetic peptide on a cellulose membrane
B40: SG peptide 23 (peptide, UniProt P10124 72-91, looked up)
peptide: TDLFPKTRIQDLNRIFPLSE
notes: serglycin core protein, spot 23 of the 20-mer walk with two-residue shift; numbers count on: the mature protein (1-131); source: synthetic peptide on a cellulose membrane
B41: SG peptide 51 (peptide, UniProt P10124 128-147, looked up)
peptide: AFHDNLRSLDRNLPSDSQDL
notes: serglycin core protein, spot 51 of the 20-mer walk with two-residue shift; numbers count on: the mature protein (1-131); source: synthetic peptide on a cellulose membrane
B42: SG peptide 52 (peptide, UniProt P10124 130-149, looked up)
peptide: HDNLRSLDRNLPSDSQDLGQ
notes: serglycin core protein, spot 52 of the 20-mer walk with two-residue shift; numbers count on: the mature protein (1-131); source: synthetic peptide on a cellulose membrane
B43: SG peptide 50 (peptide, UniProt P10124 126-145, looked up)
peptide: SDAFHDNLRSLDRNLPSDSQ
notes: serglycin core protein, spot 50 of the 20-mer walk with two-residue shift; numbers count on: the mature protein (1-131); source: synthetic peptide on a cellulose membrane

The binders below were run against T1, recombinant human His-tagged serglycin (assay: peptide or protein array; 20-mer walks of the MMP-9 FnII module and HPX domain on cellulose, two-residue shift; 10 uL of 1 ng/uL Ht-SG in 10 mL blocking buffer, 1-4 h, room temperature; antibodies against SG). Details: both partners purified.

Binding result, binds:
B1, B2, B3, B4, B5, B6, B7, B8, B9, B10, B11, B12, B13, B14, B15, B16, B17, B18, B19, B20, B21, B22, B23, B24, B25, B26, B27, B28

Each binder was assayed against T2, recombinant full-length proMMP-9 (human, UniProt P14780 20-707) (assay: peptide or protein array; 20-mer walk of the SG core protein on cellulose, two-residue shift; 8.8 ul of 11.2 ug/mL proMMP-9 in 10 mL blocking buffer, 1-4 h, room temperature; antibody against MMP-9). Details: both partners purified.
T2 construct: matrix metalloprotease-9 proenzyme, human, full-length; pre domain cleaved off, the mature proenzyme is 20-707; also called rpMMP-9; source: Sf9, baculovirus, purified (gelatin-Sepharose)

Binding result, binds:
B29, B30, B31, B32, B33, B34, B35, B36, B37, B38, B39, B40

Each binder was assayed against T3, proMMP-9 purified from THP-1 cells (human (endogenous in THP-1), UniProt P14780 20-707) in the same assay as above. Details: both partners purified.
T3 construct: matrix metalloprotease-9 proenzyme, human; pre domain cleaved off, the mature proenzyme is 20-707; the preparation holds a small amount of TIMP-1; monomer and reduction-sensitive homomultimer; also called pMMP-9; promatrix metalloprotease-9; source: purified from conditioned medium of PMA-stimulated THP-1 cells (Q-Sepharose pass-through, gelatin-Sepharose)
Target sequence in this assay (P14780 20-707): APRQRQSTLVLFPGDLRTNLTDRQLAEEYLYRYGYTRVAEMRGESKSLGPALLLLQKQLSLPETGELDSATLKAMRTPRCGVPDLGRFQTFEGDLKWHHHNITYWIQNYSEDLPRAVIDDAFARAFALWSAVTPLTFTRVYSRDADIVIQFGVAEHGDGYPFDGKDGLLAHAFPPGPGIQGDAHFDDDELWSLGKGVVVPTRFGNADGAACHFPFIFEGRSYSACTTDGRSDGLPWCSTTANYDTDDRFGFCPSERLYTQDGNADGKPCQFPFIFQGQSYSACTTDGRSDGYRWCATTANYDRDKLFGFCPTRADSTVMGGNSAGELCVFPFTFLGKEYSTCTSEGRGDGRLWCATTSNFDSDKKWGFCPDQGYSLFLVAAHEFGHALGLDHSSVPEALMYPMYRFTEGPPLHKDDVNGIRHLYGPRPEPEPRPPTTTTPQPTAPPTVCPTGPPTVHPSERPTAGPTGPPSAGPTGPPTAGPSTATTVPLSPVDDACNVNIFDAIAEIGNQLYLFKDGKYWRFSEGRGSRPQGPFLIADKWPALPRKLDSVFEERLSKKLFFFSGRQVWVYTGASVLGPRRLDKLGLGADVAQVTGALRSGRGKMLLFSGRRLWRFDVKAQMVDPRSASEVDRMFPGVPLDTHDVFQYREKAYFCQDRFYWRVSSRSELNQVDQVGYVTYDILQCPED

Binding result, binds:
B29, B30, B31, B32, B33, B34, B35, B36, B37, B38, B39, B40

These binders were tested against T4, recombinant proMMP-9 lacking the HPX domain (human, UniProt P14780 20-515) in the same assay as above. Details: both partners purified.
T4 construct: MMP-9 proenzyme, human; stop codon behind the codon for A515; the mature proenzyme starts at 20; also called rpMMP-9ΔHPX; proMMP-9ΔHPX; source: Sf9, baculovirus, purified (gelatin-Sepharose)
T4 sequence (P14780 20-515): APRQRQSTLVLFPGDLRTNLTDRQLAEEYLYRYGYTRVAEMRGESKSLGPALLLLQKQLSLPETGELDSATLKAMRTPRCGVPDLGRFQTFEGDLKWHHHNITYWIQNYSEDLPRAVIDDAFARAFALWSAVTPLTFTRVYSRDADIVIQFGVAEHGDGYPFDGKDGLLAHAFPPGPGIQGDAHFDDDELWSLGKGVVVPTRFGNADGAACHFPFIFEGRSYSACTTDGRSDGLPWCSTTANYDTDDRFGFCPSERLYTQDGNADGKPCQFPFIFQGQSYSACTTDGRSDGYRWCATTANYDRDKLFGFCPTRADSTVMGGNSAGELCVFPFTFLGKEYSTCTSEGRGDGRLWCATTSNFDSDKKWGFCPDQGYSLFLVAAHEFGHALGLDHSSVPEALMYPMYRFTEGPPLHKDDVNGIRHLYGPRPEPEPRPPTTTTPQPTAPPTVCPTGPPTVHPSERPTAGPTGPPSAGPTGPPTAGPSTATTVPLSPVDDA

Binding result, binds:
B29, B30, B31, B32, B33, B34, B35, B36, B38, B39, B40

Biological target: T3, proMMP-9 purified from THP-1 cells
Test: as above
Details: both partners purified
Remark: another data set of the same source

Binding result, binds:
B41, B42, B43
